The target of one assay is Rwt7^HMA-6His (wheat). Put plainly: ITC; […]; 25°C; 20 mM HEPES pH 7.5, 150 mM NaCl; triplicate, […]. In general terms: In ITC the heat of successive injections is recorded.
Assay [1] has as its target Rmo2^HMA (integrated HMA domain of the barley tandem kinase protein Rmo2) (barley). The description is as above.

pKd: −log10 of the molar value.

As to “PWT7 (Magnaporthe oryzae effector) (natural protein)”, the pKd with Rwt7^HMA-6His (wheat) was 8.53.

In assay [1], “PBY2 (Magnaporthe oryzae effector) (natural protein)” had a pKd of 7.27.

What is called pKd is −log10 of the Kd, conventionally taken in molar units. Higher therefore signals a low Kd.

Source of the values: paper PMC13600239.
